Key:
[1] = molecular target: T1, human RYK on the surface of human tumor cell lines (human, UniProt P34925 46-607); assay: flow cytometry, H460 cells (lung), 5 ug/ml 2-D11-Alexa647
T1 construct: whole, on cells; Endogenous expression
Protocol: (§1) Table 1 provides the flow cytometry data on various cancer cell lines stained with fluorochrome-conjugated 2-D11, as depicted in FIG. 8. The name of each cell line is listed in the first column and the tissue of origin is listed in the second column. Binding of the 2-D11 mAb to human RYK was assessed by flow cytometric staining and analysis by staining on ice for 20 minutes with 5 μg/ml of 2-D11 anti-human RYK-Alexa647 conjugated mAb or equal amounts of isotype matched control mAb, washed, and analyzed. The median fluorescence intensity (MFI) of 2-D11 stained cells is listed in the middle column and the MFI of isotype control stained cells are listed in the in the adjacent column. Cell lines were scored as “++”, “+”, or neg (unmarked with “+”) lines based on the ratio of median fluorescence intensity (MFI) of stained cells relative to the MFI of isotype control stained cells (MFIR).
(§2) The name of each cell line is listed in the first column and the tissue of origin is listed in the second column. Binding of the 2-D11 mAb to human RYK was assessed by flow cytometric staining and analysis by staining on ice for 20 minutes with 5 μg/ml of 2-D11 anti-human RYK-Alexa647 conjugated mAb or equal amounts of isotype matched control mAb, washed and analyzed. […]

[2] = molecular target: T1, human RYK on the surface of human tumor …; assay: flow cytometry, SK-OV-3 cells (ovarian), 5 ug/ml 2-D11-Alexa647; line unmarked (no staining)
Protocol: as §1, §2

[3] = molecular target: T1, human RYK on the surface of human tumor …; assay: flow cytometry, A673 cells (Ewings sarcoma), 5 ug/ml 2-D11-Alexa647
Protocol: as §1, §2

[4] = molecular target: T1, human RYK on the surface of human tumor …; assay: flow cytometry, K562 cells (CML), 5 ug/ml 2-D11-Alexa647
Protocol: as §1, §2

[5] = molecular target: T1, human RYK on the surface of human tumor …; assay: flow cytometry, REH cells (ALL), 5 ug/ml 2-D11-Alexa647; line unmarked (no staining)
Protocol: as §1, §2

[6] = molecular target: T1, human RYK on the surface of human tumor …; assay: flow cytometry, HELA cells (ovarian as printed), 5 ug/ml 2-D11-Alexa647; line unmarked (no staining)
Protocol: as §1, §2

[7] = molecular target: T2, recombinant human RYK protein used in KinExA (human, UniProt P34925 46-227, limits assumed); assay: KinExA 3200, soluble RYK competitor against RYK-coated particles
T2 construct: Legend prints 'RYK2'; also called recombinant human RYK2 protein
T2 sequence (P34925 46-227 limits assumed, form in doubt): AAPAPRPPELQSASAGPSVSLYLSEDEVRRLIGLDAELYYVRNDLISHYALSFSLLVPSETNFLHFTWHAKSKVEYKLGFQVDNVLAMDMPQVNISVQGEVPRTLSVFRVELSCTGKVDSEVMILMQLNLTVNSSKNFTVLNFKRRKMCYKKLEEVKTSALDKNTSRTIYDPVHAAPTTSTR
Protocol: Analysis was performed using a KinExA 3200 instrument. FIG. 7A: The proportion of anti-human RYK mAb bound to particles coated with RYK protein (y-axis) in the presence of increasing molar (M) concentration of soluble RYK competitor (x-axis) is shown for 2-D11 mAb (upper left panel) and 7-H10 mAb (lower left panel).

[8] = molecular target: T1, human RYK on the surface of human tumor …; assay: flow cytometry, SKBR3 cells (breast), 5 ug/ml 2-D11-Alexa647
Protocol: as §1, §2

[9] = molecular target: T1, human RYK on the surface of human tumor …; assay: flow cytometry, MCF7 cells (breast), 5 ug/ml 2-D11-Alexa647; line unmarked (no staining)
Protocol: as §1, §2

[10] = molecular target: T1, human RYK on the surface of human tumor …; assay: flow cytometry, T24 cells (bladder), 5 ug/ml 2-D11-Alexa647
Protocol: as §1, §2

[11] = molecular target: T1, human RYK on the surface of human tumor …; assay: flow cytometry, H446 cells (lung), 5 ug/ml 2-D11-Alexa647
Protocol: as §1, §2

[12] = molecular target: T1, human RYK on the surface of human tumor …; assay: flow cytometry, NCI H1155 cells (lung), 5 ug/ml 2-D11-Alexa647; line unmarked (no staining)
Protocol: as §1, §2

[13] = molecular target: T1, human RYK on the surface of human tumor …; assay: flow cytometry, NCI H226 cells (lung), 5 ug/ml 2-D11-Alexa647
Protocol: as §1, §2

[14] = molecular target: T1, human RYK on the surface of human tumor …; assay: flow cytometry, DU-145 cells (prostate), 5 ug/ml 2-D11-Alexa647; line unmarked (no staining)
Protocol: as §1, §2

[15] = molecular target: T1, human RYK on the surface of human tumor …; assay: flow cytometry, COLO 829 cells (melanoma), 5 ug/ml 2-D11-Alexa647
Protocol: as §1, §2

[16] = molecular target: T1, human RYK on the surface of human tumor …; assay: flow cytometry, SW620 cells (colon), 5 ug/ml 2-D11-Alexa647; line unmarked (no staining)
Protocol: as §1, §2

[17] = molecular target: T1, human RYK on the surface of human tumor …; assay: flow cytometry, U937 cells (monocyte cancer), 5 ug/ml 2-D11-Alexa647; line unmarked (no staining)
Protocol: as §1, §2

[18] = molecular target: T1, human RYK on the surface of human tumor …; assay: flow cytometry, HT144 cells (skin), 5 ug/ml 2-D11-Alexa647
Protocol: as §1, §2

[19] = molecular target: T1, human RYK on the surface of human tumor …; assay: flow cytometry, HS-578T cells (breast), 5 ug/ml 2-D11-Alexa647
Protocol: as §1, §2

T1 sequence (P34925 46-607 limits assumed, form in doubt): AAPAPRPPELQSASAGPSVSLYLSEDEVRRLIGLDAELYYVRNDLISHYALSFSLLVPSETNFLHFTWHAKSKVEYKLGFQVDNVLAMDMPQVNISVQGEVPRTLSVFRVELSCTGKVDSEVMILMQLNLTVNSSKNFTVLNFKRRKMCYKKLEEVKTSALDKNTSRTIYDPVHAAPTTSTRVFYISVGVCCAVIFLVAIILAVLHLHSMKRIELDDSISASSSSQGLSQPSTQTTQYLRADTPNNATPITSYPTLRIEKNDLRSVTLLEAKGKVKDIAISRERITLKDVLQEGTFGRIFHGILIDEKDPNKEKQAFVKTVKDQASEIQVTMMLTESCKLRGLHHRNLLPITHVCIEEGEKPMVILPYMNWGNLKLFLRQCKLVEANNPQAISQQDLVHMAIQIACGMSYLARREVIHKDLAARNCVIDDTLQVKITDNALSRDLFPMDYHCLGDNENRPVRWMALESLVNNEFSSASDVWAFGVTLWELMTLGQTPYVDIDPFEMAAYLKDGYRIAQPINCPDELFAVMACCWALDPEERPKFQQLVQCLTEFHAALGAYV

B1: 2-D11 anti-human RYK mAb (antibody, V domains shown)
VH: QVQLKESGPGLVAPSQSLSITCSVSGFSLNDYGVNWVRQPPGKDLEWLGMIWGDGVTEYNSTLKSRLSISKDNSKSQVFLKMNNLQTEDTARYYCVRQGSGVWFAHWGQGTLVSVSS
VL: DVLVTQTPLSLPVSLGDQASISCRSSQTIVHSNGNTYLEWYLQKPGQSPKLLIYKVSNRFSGVPDRFSGSGSGTDFTLKISRVEAEDLGIYYCFQGSHVPYTFGGGTKLEIK
notes: Mouse hybridoma mAb, kappa light chain, detected with anti-mouse IgG; also called mAb 2-D11; 2-D11 anti-human RYK-Alexa647 conjugated mAb
MFIR (MFI ratio to isotype control) [1]: 1.5 | MFIR (MFI ratio to isotype control) [2]: 1.1 | MFIR (MFI ratio to isotype control) [3]: 1.5 | MFIR (MFI ratio to isotype control) [4]: 1.5 | MFIR (MFI ratio to isotype control) [5]: 1 | MFIR (MFI ratio to isotype control) [6]: 1.1 | Kd [7]: 513 pM | MFIR (MFI ratio to isotype control) [8]: 1.6 | MFIR (MFI ratio to isotype control) [9]: 1.4 | MFIR (MFI ratio to isotype control) [10]: 1.6 | MFIR (MFI ratio to isotype control) [11]: 2.6 | MFIR (MFI ratio to isotype control) [12]: 1.3 | MFIR (MFI ratio to isotype control) [13]: 2 | MFIR (MFI ratio to isotype control) [14]: 1.3 | MFIR (MFI ratio to isotype control) [15]: 2.3 | MFIR (MFI ratio to isotype control) [16]: 1.2 | MFIR (MFI ratio to isotype control) [17]: 1.2 | MFIR (MFI ratio to isotype control) [18]: 1.6 | MFIR (MFI ratio to isotype control) [19]: 2.7
